Experiments:
[1] = biological target: T1, hNotum-Fc (Homo sapiens, UniProt Q6P988); assay: Triton X114 partition assay, blocking of hNotum-Fc; assay type: biochemical; conditions: hNotum-Fc preincubated with antibody
T1 construct: IL-2 signal peptide (N); made in house; host or cells: CHO-S
From the text: If Notum directly acts upon Wnt3A to delipidate the protein, this cleavage should result in a change in the hydrophobicity of the protein, which can be measured by a change in its partitioning behavior between aqueous and detergent phases in a Triton X114 partition assay (Bordier, 1981, PMID: 6257680): lipidated Wnt3A will be found in the […], whereas delipidated Wnt3A should show up in the […] (Willert et al., 2003, PMID: 12717451). […] An equal volume of 4.5% Triton X114 was added to the mixture, the mixture incubated on ice for 5 minutes, then at 37° C. for five minutes, before separating the phases using centrifugation at 2000×g for five minutes at room temperature. Following separation each sample was adjusted to normalize the ionic strength and Triton X114 content before analyzing the aliquots by PAGE electrophoresis. After running the gel the protein bands were transferred to a membrane for immunoblotting using an anti-rhWnt3A antibody (Cell Signaling Technology). Bands were visualized using SuperSignal West Pico Chemiluminescent substrate (Thermo Fisher Scientific).
Lane 1 is a positive molecular weight marker for rhWnt3A while the presence or absence of reagents in each aliquot is noted above the respective lane (where a is the aqueous fraction and t is Triton X-114 fraction, and the sliding bar indicates the concentration of Notum modulator). […]

[2] = biological target: T2, Notum (Homo sapiens, UniProt Q6P988); assay: Epitope mapping ELISA, human Notum; assay type: binding; design: made in house
T2 sequence (Q6P988 20-496): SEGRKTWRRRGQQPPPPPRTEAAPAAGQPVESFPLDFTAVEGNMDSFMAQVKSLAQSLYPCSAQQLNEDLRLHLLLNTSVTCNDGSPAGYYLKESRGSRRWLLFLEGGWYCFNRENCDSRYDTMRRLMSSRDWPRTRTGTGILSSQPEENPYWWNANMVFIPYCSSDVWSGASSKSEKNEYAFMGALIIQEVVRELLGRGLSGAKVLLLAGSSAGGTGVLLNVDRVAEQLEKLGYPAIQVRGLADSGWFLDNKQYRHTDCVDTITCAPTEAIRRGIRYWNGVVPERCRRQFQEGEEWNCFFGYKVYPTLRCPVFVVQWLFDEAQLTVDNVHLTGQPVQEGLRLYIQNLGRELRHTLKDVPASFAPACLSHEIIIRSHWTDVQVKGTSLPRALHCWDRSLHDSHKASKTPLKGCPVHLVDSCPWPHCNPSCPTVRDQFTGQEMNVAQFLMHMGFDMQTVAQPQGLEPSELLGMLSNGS
Method: Binding of SC2.D2.2 and other mouse mAbs to purified Notum molecules generated from transient transfection of Human and Mouse Notum cDNAs were tested using ELISA assay with human Notum, mouse Notum and chimeric human/mouse Notum coated directly on ELISA plate. Binding of anti-Notum mAbs was detected with HRP-conjugated goat anti mouse antibody and followed by colorimetric horseradish peroxidase substrate (TMB substrate Thermo Scientific). The absorbance of each well of the ELISA plates was measured at 450 nm on a microplate autoreader.

[3] = system: macaque Notum N141D; assay: Neutralization of point mutated macaque Notum, 4-MUH assay; assay type: biochemical
Method: In addition to the assays described in Examples 23 and 24, a fluorescent esterase substrate, 4-methylumbelliferyl heptanoate (Sigma), can be used to measure the activity of hydrolases using standard assay conditions (Richardson and Smith, 2007, PMID: 17620441; Jacks and Kircher, 1967, PMID: 5582971). Briefly, 4-MUH was dissolved in DMSO to a final concentration of 1.2 mM. This substrate was diluted 1:10 into assay buffer (0.1M Tris, pH 7.5, 50 mM NaCl, 0.05% Brij) and incubated with defined amounts of Notum enzyme or point-mutated Notum enzymes, and enzymatic release of the fluorescent molecule 4-methylumbelliferone monitored (355 nm excitation, 460 nm emission) using a Wallac Victor3 Multilabel Counter (Perkin Elmer).
Similarly, the macaque residue at this position was point mutated to the human residue (N141D). […] However, these point mutants differed in their ability to be neutralized by SC2.D2.2 (FIG. 26).

[4] = biological target: T3, hNotum (Homo sapiens, UniProt Q6P988); assay: Inhibition of hNotum lipase activity (Tween 20); assay type: biochemical; conditions: preincubation, various concentrations
T3 construct: 8x-His; Strep-tag II; IgK signal peptide/leader of the pSEC-CAG vector (N); made in house; host or cells: HEK293T (adherent) / suspension 293 cells
T3 sequence (Q6P988 20-496): T2 sequence (Q6P988 20-496)
Method: Briefly, recombinant hNotum (1 μg/well) was added to an assay buffer containing 50 mM Tris, pH 7.4, 33.3 mM CaCl2, and 0.33% Tween-20. When the Tween 20 monolauryl group is cleaved by lipases (e.g. hNotum), the free fatty acid forms an insoluble complex with the Ca^2+ cations resulting in a turbid solution, the OD of which can be measured at 405 nm to provide a measure of lipase activity. As a positive control, the activity of porcine pancreatic lipase (Sigma Aldrich) was measured in the same assay.
In order to take advantage of this enzymatic property and further exemplify the properties of the present invention, an assay was run to determine the effects of Notum modulators on the lipolytic activity of Notum. To that end, various concentrations of SC2.D2.2 were preincubated with hNotum for a set period prior to adding the mixture to the assay buffer and measuring the resulting enzymatic activity as described above. The results of the assay are graphically represented in FIG. 20

[5] = biological target: T4, human Notum (recombinant or endogenous; construct not specified at the place of use) (human, UniProt Q6P988 20-496); assay: SPR (Biacore), antigen at 12.5 to 0.78125 nM, 1:1 Langmuir binding model
T4 construct: also called hNotum; human Notum protein
T4 sequence: T2 sequence (Q6P988 20-496)
Method: Binding characteristics for antibodies were assessed using antibody capture Biacore technology. Disassociation constant values Kd (koff/kₒₙ) were determined for selected antibodies. A Biacore 3000 (GE Healthcare) biosensor was used for surface plasmon resonance (SPR) kinetic measurements. Using purified antibody quantitative koff constants were derived through capture the antibody on the sensor surface. Anti-mouse IgG was immobilized on the CM5 surface of sensor chip using standard amine coupling chemistry. Each mAb was captured onto an anti-IgG surface before the antigen was injected over the immobilized antibody allowing the antibody-antigen interaction to be analyzed.
Three methods were used to characterize the affinity of humanized SC2.D2.2 relative to its analogous mAb with the murine variable region. First, binding signal was measured for a fixed amount of antibody probed against serial dilutions of antigen in an ELISA format. Measured signal levels were substantially similar (data not shown). Second, the affinity of murine SC2.D2.2 was measured by Biacore using surface plasmon resonance (SPR) to provide the results set forth in FIG. 32A. […] Long off-rates for this interaction made accurate determination of affinity through kinetics difficult. […]

T1 sequence (Q6P988 with tags, fused parts or gaps): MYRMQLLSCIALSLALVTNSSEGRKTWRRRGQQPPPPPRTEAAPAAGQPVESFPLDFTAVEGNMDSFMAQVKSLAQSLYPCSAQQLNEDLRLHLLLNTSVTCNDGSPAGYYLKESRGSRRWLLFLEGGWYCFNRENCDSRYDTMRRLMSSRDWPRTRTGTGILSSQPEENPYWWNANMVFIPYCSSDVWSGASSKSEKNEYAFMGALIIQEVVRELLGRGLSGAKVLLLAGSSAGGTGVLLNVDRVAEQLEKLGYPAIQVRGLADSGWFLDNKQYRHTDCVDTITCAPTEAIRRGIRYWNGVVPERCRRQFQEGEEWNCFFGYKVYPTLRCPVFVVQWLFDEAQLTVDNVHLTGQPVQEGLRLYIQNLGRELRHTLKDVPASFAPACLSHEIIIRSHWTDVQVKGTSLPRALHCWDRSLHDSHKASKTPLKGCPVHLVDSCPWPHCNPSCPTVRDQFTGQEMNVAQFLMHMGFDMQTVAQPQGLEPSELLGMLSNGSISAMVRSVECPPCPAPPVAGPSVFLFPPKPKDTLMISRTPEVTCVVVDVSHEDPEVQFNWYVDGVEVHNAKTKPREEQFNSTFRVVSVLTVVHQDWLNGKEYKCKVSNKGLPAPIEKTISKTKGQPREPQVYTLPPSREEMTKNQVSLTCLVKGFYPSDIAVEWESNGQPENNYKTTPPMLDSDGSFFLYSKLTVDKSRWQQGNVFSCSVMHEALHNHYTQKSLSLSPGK

B1: SC2.D2.2 (antibody, V domains shown)
VH: DVQLVESGGGLVQPGGSRKISCAASGFTFSSYGMHWVRQAPEKGLEWVAYISSSTVTTYYADTVKGRFTISRDNANNTLFLQMTSLRSEDTAMYYCSRQNWDGGYFDVWGAGTTVTVSS
VL: DIVLTQSLASLAVSLGQRATISCRASKSVSSSGYSYMHWYQQKPGQPPKLLIYLASNLESGVPARFSGSGSGTDFTLNIHPVEEEDAATYYCQHSRALPLTFGAGTKLELKR
notes: also called murine SC2.D2.2
blocking of Notum induced redistribution of rhWnt3A [1]: can be blocked | binding to human Notum [2]: confirmed the binding | neutralization of mutant Notum protein [3]: enabled the antibody to neutralize the mutant protein | effect on lipase activity of Notum [4]: substantially eliminate the lipase activity of Notum | Kd [5]: < 0.1 nM
